Patent US20030069395A1 (DYAX, published 2003)

Columns and labels:
[1] = molecular target: T1, human serum albumin (HSA) (human, UniProt P02768 25-609); assay: fluorescence anisotropy; pH 7.4, 0.14 M NaCl, no caprylate
T1 construct: also called caprylate-biotinylated-HSA
Description: (§1) Affinity determinations were made by first labeling polypeptides on the C-terminal end with NHS-fluorescein. Fluorescence anisotropy measurements were performed in 384-well microplates in a volume of 10 μl in binding buffer using a Tecan Polarion fluorescence polarization plate reader. The concentration of fluorescein labeled peptide was held constant (20 nM), and the concentration of HSA was varied. For pH 6.2, 7.1, and 7.4 binding conditions, a 3 mM phosphate, 0.01% Tween-20 buffer was used. For pH 9.1 binding conditions, a 3 mM sodium bicarbonate buffer, 0.01% Tween-20 nonionic detergent buffer was used. Once NaCl was added to any of these buffers, their pH was adjusted again to achieve the original pH. The binding mixtures were equilibrated for 10 minutes in the microplate at 30° C. prior to performing the measurement. The observed change in anisotropy was fit to the equation below via nonlinear regression to obtain the apparent KD. This equation assumes that the peptide and HSA form a reversible complex with 1:1 stoichiometry.

[2] = molecular target: T1, human serum albumin (HSA); assay: fluorescence anisotropy; pH 6.2, no NaCl, no caprylate
Description: as §1

chicken ovalbumin [3] = molecular target: T2, chicken ovalbumin (Chicken, UniProt P01012 2-386); assay: fluorescence anisotropy; 3 mM phosphate, pH 6.2, 0 M NaCl; negative control
T2 construct: Negative control; also called Chicken (egg)
T2 sequence (looked up): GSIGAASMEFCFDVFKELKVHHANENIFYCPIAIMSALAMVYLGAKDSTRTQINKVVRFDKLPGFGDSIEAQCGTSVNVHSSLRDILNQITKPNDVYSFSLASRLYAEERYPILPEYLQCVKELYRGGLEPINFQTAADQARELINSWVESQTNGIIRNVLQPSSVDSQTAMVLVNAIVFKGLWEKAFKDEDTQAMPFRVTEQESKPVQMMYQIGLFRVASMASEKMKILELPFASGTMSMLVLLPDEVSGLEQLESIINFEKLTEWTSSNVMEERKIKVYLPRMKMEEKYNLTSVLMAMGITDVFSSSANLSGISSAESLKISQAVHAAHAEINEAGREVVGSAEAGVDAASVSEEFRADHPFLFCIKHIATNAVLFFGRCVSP

chicken ovalbumin [4] = molecular target: T2, chicken ovalbumin; assay: fluorescence anisotropy; PBS, pH 7.4, 0.14 M NaCl; negative control
[5] = molecular target: T1, human serum albumin (HSA); assay: fluorescence anisotropy; pH 6.2, 0.14 M NaCl, no caprylate
Description: as §1

[6] = molecular target: T3, bovine serum albumin (BSA) (Bovine, UniProt P02769 25-607); assay: fluorescence anisotropy; 3 mM phosphate, pH 6.2, 0 M NaCl
T3 sequence (P02769 25-607 limits assumed): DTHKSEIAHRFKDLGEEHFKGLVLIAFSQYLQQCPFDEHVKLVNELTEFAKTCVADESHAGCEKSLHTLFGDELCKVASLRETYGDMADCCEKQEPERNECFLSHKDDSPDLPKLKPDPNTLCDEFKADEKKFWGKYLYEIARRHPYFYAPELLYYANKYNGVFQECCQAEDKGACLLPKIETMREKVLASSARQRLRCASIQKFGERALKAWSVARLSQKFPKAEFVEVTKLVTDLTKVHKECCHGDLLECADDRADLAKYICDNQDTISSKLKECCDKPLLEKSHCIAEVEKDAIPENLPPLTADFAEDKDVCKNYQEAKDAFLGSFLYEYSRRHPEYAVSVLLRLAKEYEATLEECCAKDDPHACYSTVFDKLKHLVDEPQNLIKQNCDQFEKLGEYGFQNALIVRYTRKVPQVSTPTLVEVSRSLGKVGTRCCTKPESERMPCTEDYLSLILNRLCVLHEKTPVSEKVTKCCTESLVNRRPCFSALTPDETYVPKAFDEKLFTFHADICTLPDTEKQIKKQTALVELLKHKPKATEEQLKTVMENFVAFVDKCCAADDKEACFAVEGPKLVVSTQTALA

[7] = molecular target: T1, human serum albumin (HSA); assay: as above
[8] = molecular target: T4, murine serum albumin (MSA) (Mouse, UniProt P07724 25-608); assay: as above
T4 construct: also called mouse serum albumin; Mouse
T4 sequence (P07724 25-608 limits assumed): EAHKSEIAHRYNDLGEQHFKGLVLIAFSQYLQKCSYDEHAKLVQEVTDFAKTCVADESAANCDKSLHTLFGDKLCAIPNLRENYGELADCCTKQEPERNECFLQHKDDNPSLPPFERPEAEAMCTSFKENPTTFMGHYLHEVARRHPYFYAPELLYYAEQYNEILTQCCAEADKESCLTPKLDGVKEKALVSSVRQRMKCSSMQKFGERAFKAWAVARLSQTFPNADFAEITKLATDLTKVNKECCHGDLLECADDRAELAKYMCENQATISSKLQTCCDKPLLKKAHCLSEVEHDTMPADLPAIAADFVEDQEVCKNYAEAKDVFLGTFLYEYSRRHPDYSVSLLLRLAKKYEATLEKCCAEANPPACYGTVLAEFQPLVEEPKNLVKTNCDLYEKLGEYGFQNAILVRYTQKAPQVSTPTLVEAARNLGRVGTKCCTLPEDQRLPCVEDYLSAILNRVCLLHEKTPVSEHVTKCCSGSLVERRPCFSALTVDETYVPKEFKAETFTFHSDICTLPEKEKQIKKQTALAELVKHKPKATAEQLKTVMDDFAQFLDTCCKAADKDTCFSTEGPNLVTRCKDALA

pig serum albumin [9] = molecular target: T5, pig serum albumin (Pig, UniProt P08835 25-607); assay: as above
T5 sequence (P08835 25-607 limits assumed): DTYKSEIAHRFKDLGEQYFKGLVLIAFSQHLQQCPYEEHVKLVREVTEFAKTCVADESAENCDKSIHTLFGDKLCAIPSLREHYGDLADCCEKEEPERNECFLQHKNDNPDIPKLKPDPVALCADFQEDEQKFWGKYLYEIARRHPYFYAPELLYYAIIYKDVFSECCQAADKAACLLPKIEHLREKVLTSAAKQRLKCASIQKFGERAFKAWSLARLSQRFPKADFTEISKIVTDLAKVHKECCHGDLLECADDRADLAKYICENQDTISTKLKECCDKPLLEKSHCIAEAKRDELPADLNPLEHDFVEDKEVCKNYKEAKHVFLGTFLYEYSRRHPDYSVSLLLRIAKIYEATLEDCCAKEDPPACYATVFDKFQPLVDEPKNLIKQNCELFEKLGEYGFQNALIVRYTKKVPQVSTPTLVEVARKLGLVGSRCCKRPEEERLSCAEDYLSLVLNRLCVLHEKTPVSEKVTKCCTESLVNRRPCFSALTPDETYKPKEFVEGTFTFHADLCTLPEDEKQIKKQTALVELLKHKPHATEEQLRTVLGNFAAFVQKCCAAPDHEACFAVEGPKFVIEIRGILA

rhesus serum albumin [10] = molecular target: T6, rhesus serum albumin (Rhesus, UniProt Q28522 17-600); assay: as above
T6 sequence (Q28522 17-600 limits assumed): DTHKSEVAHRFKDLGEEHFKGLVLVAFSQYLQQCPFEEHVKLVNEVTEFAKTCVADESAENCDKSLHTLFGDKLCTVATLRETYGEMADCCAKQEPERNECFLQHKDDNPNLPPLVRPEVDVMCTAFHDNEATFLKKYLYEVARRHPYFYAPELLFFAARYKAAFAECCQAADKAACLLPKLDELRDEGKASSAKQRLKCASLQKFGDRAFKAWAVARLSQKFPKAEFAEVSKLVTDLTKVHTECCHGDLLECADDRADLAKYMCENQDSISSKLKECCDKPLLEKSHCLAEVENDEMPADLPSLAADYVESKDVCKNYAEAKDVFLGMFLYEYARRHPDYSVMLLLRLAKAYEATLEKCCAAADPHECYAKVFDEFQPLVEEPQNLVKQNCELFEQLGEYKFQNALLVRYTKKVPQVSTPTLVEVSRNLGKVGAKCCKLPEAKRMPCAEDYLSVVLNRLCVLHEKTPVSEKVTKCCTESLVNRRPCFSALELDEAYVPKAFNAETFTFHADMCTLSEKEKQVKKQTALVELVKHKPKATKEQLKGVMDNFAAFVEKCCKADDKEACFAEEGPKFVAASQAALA

goat serum albumin (GSA) [11] = molecular target: T7, goat serum albumin (GSA) (Goat); assay: as above
T7 sequence (P85295 whole entry, looked up): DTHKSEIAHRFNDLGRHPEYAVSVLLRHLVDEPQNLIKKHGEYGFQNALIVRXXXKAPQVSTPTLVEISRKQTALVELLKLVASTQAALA

rat serum albumin = rat serum albumin (Rat, UniProt P02770 25-608); assay: fluorescence anisotropy; PBS, pH 7.4, 0.14 M NaCl
Sequence of rat serum albumin (P02770 25-608 limits assumed): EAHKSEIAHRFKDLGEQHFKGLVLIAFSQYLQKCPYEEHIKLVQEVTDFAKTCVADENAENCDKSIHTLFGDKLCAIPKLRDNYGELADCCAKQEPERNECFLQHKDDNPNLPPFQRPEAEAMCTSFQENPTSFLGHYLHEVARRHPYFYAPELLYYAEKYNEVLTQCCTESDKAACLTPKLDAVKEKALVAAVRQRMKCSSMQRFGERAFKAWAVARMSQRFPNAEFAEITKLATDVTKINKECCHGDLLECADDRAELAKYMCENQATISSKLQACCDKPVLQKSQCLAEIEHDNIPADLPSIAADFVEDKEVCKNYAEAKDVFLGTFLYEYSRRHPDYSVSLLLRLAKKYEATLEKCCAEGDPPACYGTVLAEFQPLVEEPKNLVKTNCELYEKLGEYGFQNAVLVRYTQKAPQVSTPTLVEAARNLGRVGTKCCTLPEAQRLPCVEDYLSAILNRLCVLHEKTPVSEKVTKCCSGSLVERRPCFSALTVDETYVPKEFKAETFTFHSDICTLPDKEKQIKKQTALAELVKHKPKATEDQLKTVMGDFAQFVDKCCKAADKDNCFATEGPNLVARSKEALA

[12] = molecular target: T3, bovine serum albumin (BSA); assay: fluorescence anisotropy; PBS, pH 7.4, 0.14 M NaCl
[13] = molecular target: T1, human serum albumin (HSA); assay: fluorescence anisotropy; PBS, pH 7.4, 0.14 M NaCl
[14] = molecular target: T4, murine serum albumin (MSA); assay: fluorescence anisotropy; PBS, pH 7.4, 0.14 M NaCl
pig serum albumin [15] = molecular target: T5, pig serum albumin; assay: fluorescence anisotropy; PBS, pH 7.4, 0.14 M NaCl
rhesus serum albumin [16] = molecular target: T6, rhesus serum albumin; assay: fluorescence anisotropy; PBS, pH 7.4, 0.14 M NaCl
goat serum albumin (GSA) [17] = molecular target: T7, goat serum albumin (GSA); assay: fluorescence anisotropy; PBS, pH 7.4, 0.14 M NaCl
[18] = molecular target: T1, human serum albumin (HSA); assay: fluorescence anisotropy; pH 7.4, 0.14 M NaCl, 0.1% caprylate
Description: as §1
Once all the positive phage isolates were sequenced, peptides corresponding to the display peptide were synthesized. A small amount of constant phage sequence surrounding each varied amino acid sequence region was retained and either a -GGGK-NH₂ (SEQ ID NO: 24) amino acid sequence or -X-K-NH₂ C-terminal tail was added to each peptide, where X is 6-aminohexanoic acid and K-NH₂ is an amidated terminal lysine residue. The constant phage sequence was retained because these residues can often play a role in target binding. To determine its affinity for HSA , each peptide was labeled with fluorescein on the C-terminal lysine side chain.

[19] = molecular target: T1, human serum albumin (HSA); assay: fluorescence anisotropy; pH 6.2, 10 mM NaCl
Description: as §1

B1: DX-321, Ac-AEGTGDRNMCKFSWIRSPAFCARADPE-X-K-NH2 (peptide)
peptide: AEGTGDRNMCKFSWIRSPAFCARADPEXK
modifications: N-terminal acetyl; X = 6-aminohexanoic acid before the C-terminal Lys; C-terminal amide; C-terminal Lys side chain carries fluorescein (anisotropy) or is coupled to NHS-Sepharose
[1]
  Kd: 84 µM
[2]
  Kd: 0.9 µM
Chicken ovalbumin [3]
  Kd: > 200 µM
Chicken ovalbumin [4]
  Kd: > 200 µM
[5]
  Kd: 9 µM
[6]
  Kd: 21 µM
[7]
  Kd: 0.9 µM
[8]
  Kd: > 200 µM
Pig serum albumin [9]
  Kd: 21 µM
Rhesus serum albumin [10]
  Kd: 38 µM
Goat serum albumin (GSA) [11]
  Kd: 95 µM
Rat serum albumin
  Kd: 117 µM
[12]
  Kd: > 200 µM
[13]
  Kd: 84 µM
[14]
  Kd: > 200 µM
Pig serum albumin [15]
  Kd: > 200 µM
Rhesus serum albumin [16]
  Kd: 82 µM
Goat serum albumin (GSA) [17]
  Kd: 83 µM
[18]
  Kd: 75 µM
[19]
  Kd: ~9 µM
